Details: Streptomyces albogriseolus, Thermal, DSC, reversible: yes, whole UniProt chain shown

B1: Subtilisin inhibitor wild type, P01006 (protein)
chain: MRNTGAGPSPSVSRPPPSAAPLSGAALAAPGDAPSALYAPSALVLTVGKGVSATTAAPERAVTLTCAPGPSGTHPAAGSACADLAAVGGDLNALTRGEDVMCPMVYDPVLLTVDGVWQGKRVSYERVFSNECEMNAHGSSVFAF
unfolding free energy (pH 3.2, 53.36 °C, glycine 25 mM): 5.55 kcal/mol
Tm (pH 3.2, glycine 25 mM): 53.4 °C
unfolding enthalpy (calorimetric) (pH 3.2, glycine 25 mM): 106 kcal/mol
unfolding free energy (pH 7, 82.21 °C, Sodium phosphate 25 mM): 6.03 kcal/mol
Tm (pH 7, Sodium phosphate 25 mM): 82.2 °C
unfolding enthalpy (calorimetric) (pH 7, Sodium phosphate 25 mM): 190 kcal/mol
unfolding free energy (pH 9.5, 80.7 °C, glycine 25 mM): 6.04 kcal/mol
Tm (pH 9.5, glycine 25 mM): 80.7 °C
unfolding enthalpy (calorimetric) (pH 9.5, glycine 25 mM): 186 kcal/mol

Reference: FireProtDB (doi:10.1006/jmbi.1995.0323)
